Test results from patent US20230021388A1 (VELOSBIO, published 2023).
Where a chain is given by its changes, count along the chain named. In names and notes the source's numbering stands.

B1: Ab1 Fab variant H1 A30I (Fab, V domains shown)
VH: QVQLQESGPGLVKPSQTLSLTCTVSGYIFTAYNIHWVRQAPGQGLEWMGSFDPYDGGSSYNQKFKDRLTISKDTSKNQVVLTMTNMDPVDTATYYCARGWYYFDYWGHGTLVTVSS
VL: DIVMTQTPLSLPVTPGEPASISCRASKSISKYLAWYQQKPGQAPRLLIYSGSTLQSGIPPRFSGSGYGTDFTLTINNIESEDAAYYFCQQHDESPYTFGEGTKVEIK
notes: Fab
B2: Ab1 Fab variant H2 F58P (Fab, V domains shown)
VH: B1 VH with I28A, F51P
VL: B1 VL
notes: Fab
B3: Ab1 Fab variant H1 G27T (Fab, V domains shown)
VH: B1 VH with G26T, I28A
VL: B1 VL
notes: Fab
B4: Ab1 Fab variant H1 F31L (Fab, V domains shown)
VH: B1 VH with I28A, F29L
VL: B1 VL
notes: Fab
B5: Ab1 Fab variant H2 D59S (Fab, V domains shown)
VH: B1 VH with I28A, D52S
VL: B1 VL
notes: Fab
B6: Ab1 Fab variant H1 G27D (Fab, V domains shown)
VH: B1 VH with G26D, I28A
VL: B1 VL
notes: Fab
B7: Ab1 Fab variant H2 D65T (Fab, V domains shown)
VH: B1 VH with I28A, D55T
VL: B1 VL
notes: Fab
B8: Ab1 Fab variant H1 F31W (Fab, V domains shown)
VH: B1 VH with I28A, F29W
VL: B1 VL
notes: Fab
B9: Ab1 Fab variant H2 G67H (Fab, V domains shown)
VH: B1 VH with I28A, G57H
VL: B1 VL
notes: Fab
B10: Ab1 Fab variant H1 Y29K (Fab, V domains shown)
VH: B1 VH with Y27K, I28A
VL: B1 VL
notes: Fab
B11: Ab1 Fab variant H1 Y29S (Fab, V domains shown)
VH: B1 VH with Y27S, I28A
VL: B1 VL
notes: Fab
B12: Ab1 Fab variant H1 N40K (Fab, V domains shown)
VH: B1 VH with I28A, N33K
VL: B1 VL
notes: Fab
B13: Ab1 Fab variant H1 A30R (Fab, V domains shown)
VH: B1 VH with I28R
VL: B1 VL
notes: Fab
B14: Ab1 Fab variant H1 G27R (Fab, V domains shown)
VH: B1 VH with G26R, I28A
VL: B1 VL
notes: Fab
B15: Ab1 Fab variant H1 T32D (Fab, V domains shown)
VH: B1 VH with I28A, T30D
VL: B1 VL
notes: Fab
B16: Ab1 Fab variant H2 D65N (Fab, V domains shown)
VH: B1 VH with I28A, D55N
VL: B1 VL
notes: Fab
B17: Ab1 Fab variant H2 S57A (Fab, V domains shown)
VH: B1 VH with I28A, S50A
VL: B1 VL
B18: Ab1 Fab variant H1 N40R (Fab, V domains shown)
VH: B1 VH with I28A, N33R
VL: B1 VL
B19: Ab1 Fab variant H1 I41V (Fab, V domains shown)
VH: B1 VH with I28A, I34V
VL: B1 VL
B20: Ab1 Fab variant L1 S30A (Fab, V domains shown)
VH: B1 VH with I28A
VL: B1 VL with S28A
notes: Fab
B21: Ab1 Fab variant L1 S32A (Fab, V domains shown)
VH: B1 VH with I28A
VL: B1 VL with S30A
notes: Fab
B22: Ab1 Fab variant L1 S32I (Fab, V domains shown)
VH: B1 VH with I28A
VL: B1 VL with S30I
notes: Fab
B23: Ab1 Fab variant L2 L70K (Fab, V domains shown)
VH: B1 VH with I28A
VL: B1 VL with L54K
notes: Fab; also called SGSTKQS
B24: Ab1 Fab variant L2 Q71T (Fab, V domains shown)
VH: B1 VH with I28A
VL: B1 VL with Q55T
notes: Fab; also called SGSTLTS
B25: Ab1 Fab variant L1 L41V (Fab, V domains shown)
VH: B1 VH with I28A
VL: B1 VL with L33V
notes: Fab
B26: Ab1 Fab variant L2 T69H (Fab, V domains shown)
VH: B1 VH with I28A
VL: B1 VL with T53H
notes: Fab; also called SGSHLQS
B27: Ab1 Fab variant L2 S68G (Fab, V domains shown)
VH: B1 VH with I28A
VL: B1 VL with S52G
notes: Fab; also called SGGTLQS
B28: Ab1 Fab variant L2 L70H (Fab, V domains shown)
VH: B1 VH with I28A
VL: B1 VL with L54H
notes: Fab; also called SGSTHQS
B29: Ab1 Fab variant L1 S30F (Fab, V domains shown)
VH: B1 VH with I28A
VL: B1 VL with S28F
notes: Fab
B30: Ab1 Fab variant L2 T69R (Fab, V domains shown)
VH: B1 VH with I28A
VL: B1 VL with T53R
notes: Fab; also called SGSRLQS
B31: Ab1 Fab variant L1 S30P (Fab, V domains shown)
VH: B1 VH with I28A
VL: B1 VL with S28P
notes: Fab
B32: Ab1 Fab variant L1 S30H (Fab, V domains shown)
VH: B1 VH with I28A
VL: B1 VL with S28H
notes: Fab
B33: Ab1 Fab variant L2 Q71V (Fab, V domains shown)
VH: B1 VH with I28A
VL: B1 VL with Q55V
notes: Fab; also called SGSTLVS
B34: Ab1 Fab variant L2 S68R (Fab, V domains shown)
VH: B1 VH with I28A
VL: B1 VL with S52R
notes: Fab; also called SGRTLQS

These binders were tested against T1, recombinant human ROR1 extracellular domain (human, UniProt Q01973 30-406) (assay: capture filter lift).
T1 construct: biotinylated for the filter lifts; also called huROR1-ECD; human ROR1-ECD
T1 sequence (Q01973 30-406 limits assumed): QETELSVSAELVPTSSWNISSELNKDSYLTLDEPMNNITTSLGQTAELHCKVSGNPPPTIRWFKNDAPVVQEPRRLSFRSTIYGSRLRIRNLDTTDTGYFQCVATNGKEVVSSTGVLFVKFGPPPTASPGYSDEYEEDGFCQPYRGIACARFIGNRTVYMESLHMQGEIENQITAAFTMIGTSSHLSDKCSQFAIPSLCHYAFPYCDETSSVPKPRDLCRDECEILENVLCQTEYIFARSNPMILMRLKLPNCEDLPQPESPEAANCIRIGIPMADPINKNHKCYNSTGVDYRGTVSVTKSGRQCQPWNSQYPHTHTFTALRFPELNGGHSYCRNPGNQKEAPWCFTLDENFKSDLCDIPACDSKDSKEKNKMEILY
Protocol: Subsequently, the filter was applied to the agar plates as described above. For detection of antigen binding, the filter was rinsed briefly in PBS, and transferred to biotinylated huROR1-ECD (ACROBiosystems, cat. #RO1-H522y) in 5% M-P.
Filters were incubated with 2.3 nM biotinylated ROR1 diluted in 5% M-P for 2 h at 25° C. with constant agitation, and washed 5 times, 2 minutes each wash, with constant agitation in PBS-T. Alternatively, filters were washed more rapidly using a squirt bottle and sintered glass funnel for vacuum filtration. The filters were transferred to 10 mL of High Sensitivity Neutravidin, HRP conjugate (Thermo Scientific, cat. #31030) diluted 5000-fold in 1% BSA in PBS and incubated for 1 h at 25° C. The filters were then washed 5 times in PBS-T and were developed with 1-Step Ultra TMB-Blotting.
All libraries were initially screened by capture lift to identify variants with improved binding. The capture lift assay, described in Example 1, enables the filter lift assay to discern variants that bind antigen more strongly based on the staining intensity. In order to determine the optimal concentration of antigen to use for screening, biotinylated huROR1-ECD was titrated on a capture lift of Ab1 Fab. Binding to Ab1 was clearly visible at antigen concentrations ≥23 nM and the signal was diminished at lower huROR1 concentrations. […] In addition, for more stringent screening, filters were probed with lower concentrations of antigen and/or development of the filter was terminated earlier, before the Ab1 staining was visible. […] In this example, approximately 250 library variants were plated. Twelve variants clearly bound huROR1 (FIG. 4, numbered).
B1: binds. B2: binds. B3: binds. B4: binds. B5: binds. B6: binds. B7: binds. B8: binds. B9: binds. B10: binds. B11: binds. B12: binds. B13: binds. B14: binds. B15: binds. B16: binds.

Each binder was assayed against T1, recombinant human ROR1 extracellular … (assay: ELISA, soluble Fab on coated huROR1-ECD).
Protocol: The previously described filter lift assay provides a visual, qualitative assessment of antigen binding (Example 1). In order to assess the ROR1 binding activity of Ab1 Fab in a more quantitative fashion, an ELISA assay was developed. A 96-well Costar-3366 plate was coated with 50 μL/well of 1 μg/mL human ROR1-ECD (ACROBiosystems, cat. #RO1-H522y) in PBS overnight at 4° C. The plate was rinsed once with PBS-T and blocked with 100 μL/well of 5% M-P for 1 h at 25° C. Fab samples were serially diluted 3-fold using 5% M-P and 50 μL/well was incubated for 1 h at 25° C. The plate was washed three times with PBS-T and 50 μL/well anti-human kappa, and HRP conjugate (Southern Biotech, cat. #2060-05) diluted 10,000-fold in 5% M-P was added for 1 h at 25° C. In certain assays (extended wash format), the plate was placed in large volumes (up to 1 L) of PBS-T and incubated, with mixing, for 2-5 h prior to the addition of anti-human kappa, HRP conjugate. The plate was washed three times with PBS-T, and developed with 50 μL/well 1-Step Ultra TMB-ELISA (Thermo Scientific, cat. #34028). The reaction was terminated by the addition of 2 N H2504 and the A450 was determined using a Spectramax plate reader.
Binder B17 has a Kd of 3.6 nM. Work on B18 yielded a Kd of 43 nM. Binder B19 has a Kd of 3.5 nM. With B20 the Kd was 1.5 nM. Binder B21 has a Kd of 1.1 nM. B22 gave a Kd of 1.9 nM. Binder B23 has a Kd of 1.5 nM. With B24 the Kd was 1.1 nM. Work on B25 yielded a Kd of 1.1 nM. B26 gave a Kd of 1.5 nM. With B27 the Kd was 1.6 nM. Binder B28 has a Kd of 2.3 nM. In the case of B29, the Kd is reported as 18 nM. B30 gave a Kd of 2.1 nM. Binder B31 has a Kd of 16 nM. B32 was tested, and the Kd was 1.4 nM. B33 was tested, and the Kd was 1.3 nM. Binder B34 has a Kd of 11 nM.
